Source: publication PMC7020990, “Structural and biochemical analysis of the metallo‐β‐lactamase L1 from emerging pathogen Stenotrophomonas maltophilia revealed the subtle but distinct di‐metal scaffold for catalytic activity” (Protein Science : A Publication of the Protein Society, 2019)

Biological target: the molecule itself
Assay: crystal structure; L1‐Native in space group P2_(1) with the tetramer in the asymmetric unit; all other L1 structures in P6_(4)22 with one chain in the asymmetric unit and the same tetramer formed by crystallographic twofold symmetries

B1: Metallo‐β‐lactamase L1 from Stenotrophomonas maltophilia K279a (enzyme)
chain: SNASAAEAPLPQLRAYTVDASWLQPMAPLQVADHTWQIGTEDLTALLVQTAEGAVLLDGGMPQMAGHLLDNMKLRGVAPQDLRLILLSHAHADHAGPVAELKRRTGAHVAANAETAVLLARGGSNDLHFGDGITYPPASADRIIMDGEVVTVGGIAFTAHFMPGHTPGSTAWTWTDTRDGKPVRIAYADSLSAPGYQLKGNPRYPRLIEDYKRSFATVRALPCDLLLTPHPGASNWNYAVGSKASAEALTCNAYADAAEKKFDAQLARETAGTR
notes: N-terminal Ser‐Asn‐Ala cloning artifact left after TEV cleavage (numbered residues 17–19); Metallo‐β‐lactamase L1 (subclass B3), S. maltophilia K279a, residues 20-290; 88% identical to the L1 of the other strain in earlier structures; Two Zn ions per chain in the native form; Cloned in pMCSG53; also called L1 MBL; L1‐Native; not shown: His‐tag, N-terminal, cleaved
In the case of B1, the “stoichiometry N” value is reported as 4.
